Data on 20 sequences can be found in the DeepSol protein solubility set.

A short description of the series: soluble on expression in E. coli; label from the status in PepcDB or PDB records.
Regarding “MGSDKIHHHHHHMQNVGLVMGKSSITDFSFAVNPSAIPKFGEYVTAINRDGEEVIGIVREISNFNRMILDEGFSFEYLVKNLDFSRRLIEKNDVIVATATVIGVVKDGEVYPNRTPIKPNSEVFLADDDVLSSLFKCDRGVELGRMIARPDISVSLDIKQLVLRHFAILSVTGGGKSNTVAVLVNDIVKKLNGTVVLIDPHGEYVGYTFEDGSERGKNVVPAGIRPERLEPWEFASLVGVDREKAAVQRMHLERIFTTVRHEGKAGREFVERVLDIAEEWINIAAGKGEAEYYDFNGIKRVATLDRQDLNALARIKEYVSSFMRRYEDLLSQNDMLANIKPSYLNVVNLSGFDEGQMRVVVAYLLRNLLVGRINYVRGKKGWEKICPAIVKPLLVIFEEGHIFAPKGVNNDVVSWMGRIAREGRKFGIGLGIVSQRPKRLNDDVLSQCNTKIILRITEPNDQRYVQHASEQISEDLLKDIASLGVGEAVVVGPAVKLPVAVKIRKFAGNYGGRDIDVVEEWLGREEEQKKQVTLEDLAV”, the “soluble on expression in E. coli” value is recorded as “not soluble”.

Turning to “VPWEDVFKSFDPNPLAAGTIAQVHRATLETGDRVVVKVQRPTARADIEQDLALFEMFAEKVGKRPALNQVINMEDVFKHLSTSLHRELDFRQEANNIERMRTVLADYDRLAVPSIHWDLS”, the “soluble on expression in E. coli” value is “not soluble”.

As to “MLSSKTFLNLVRTSRCRMSSSFAPKPAERTAQHSASIWVEFTTLAAETKAVNLGQGFPDSPAPKFVTDLLENLSKHPELTAAHQYTRGYGHPMLVDILAKMYSHFYNVQVDPMNEVLVTVGAYLSLYYAFLGWVNKGDEVLIIEPAYDCYYPQVKFAGGVPVPVVMNLAEGATSASQFTIDFADMESKINEKTKMLVINNPHNPTGKLFSRHELEKLAEIAKKHNLIVIADEVYEFHVWDKNDMVRFASLPGMYERTISIGSAGKAFSVTGWKLGWAVGPKQLLEPLKAIHQNCVFTCSTPTQMAIAEAFRLDWPKFLSDPENSYLATGLSGELRAKRDKLAKMLEEGNFRPIIPDAGYFMLADYVHLKEGINLPTEEDPDDFVFSRWLCREKKLAVIPPSAFYSARDNKLKNSNMVRLCYFKKDETLDAAEEILKKLGKQ”, the “soluble on expression in E. coli” value is listed as “not soluble”.

Consider “MGSSHHHHHHGKTIFVIVPTNEEQVAFLEALAKQDELNFDWQNPPTEPGQPVVILIPSDMVEWFLEMLKAKGIPFTVYVEEGGSENLYFQGGGGGGFVPNWYQHPDPALKYADDMEVYDYYQQYEAAKKAAREASTSSKKTAATSPALPRAKPHVTIA”, for which the “soluble on expression in E. coli” value is “soluble”.

“MISDIRKDAEVRMEKCVEAFKTQISKVRTGRASPSLLDGIVVEYYGTPTPLRQLASVTVEDSRTLKINVFDRSMGPAVEKAIMASDLGLNPSSAGTDIRVPLPPLTEERRKDLTKIVRGEAEQARVAVRNVRRDANDKVKALLKDKAISEDDDRRSQEEVQKMTDAAIKKVDAALADKEAELMQF”: the “soluble on expression in E. coli” value is “not soluble”.

Regarding “NCSKIHLSTKLLAVDFPAHFVKSISCQICEHILADPVETSCKHLFCRICILRCLKVMGSYCPSCRYPCFPTDLESPVKSFLNILNSLMVKCPAQDCNEEVSLEKYNHHVSSHKESK”, the “soluble on expression in E. coli” value was “soluble”.

Turning to “MTSTKAYVLALAGCTNSGKSTLAKEFQRFFGAGETTIINQDEFYKTENEVEKIYHPDAEHLTDEGYYWSFDEKEAINIDQFRQRILNESKVYKNVIIDGNMITEMDEIVDLCDRIVVMTLDFKTCKRRREARTDYVPADTPGYFVNVAFPAYVRHLERARQRSRTDSRLTFIDVSESKFDDKNKSIVNFRQQILDDHIKLTDEVIDVKVVDQLVSHPSCGAISTFNGVTRDNHGGRDVSNLSYDCHDLMAYKKLRGICAEIRAEYPDVKKIAIFHRLGKVDIGESSVIISTSSPHRKTAIQATEKCIDLLKEHAPIFKYEEYSNGEVDGVWKSNIEDSKQ”, the “soluble on expression in E. coli” value is recorded as “not soluble”.

For “MNIEEFTSGLAEKGISLSPRQLEQFELYYDMLVEWNEKINLTSITEKKEVYLKHFYDSITAAFYVDFNQVNTICDVGAGAGFPSLPIKICFPHLHVTIVDSLNKRITFLEKLSEALQLENTTFCHDRAETFGQRKDVRESYDIVTARAVARLSVLSELCLPLVKKNGLFVALKAASAEEELNAGKKAITTLGGELENIHSFKLPIEESDRNIMVIRKIKNTPKKYPRKPGTPNKSPIEG”, the “soluble on expression in E. coli” value is recorded as “soluble”.

Regarding “LKSADHGGRLAYDNGRYGDGDGLTQNGGVNGGLRFGESGFLNLSAQFREQARTIRAGIDQRTGHYGNPSIGDPSLHRQALAYNAGVALDDNVELYSFATYTHRSVSSAQIYQLPSLAPRLYPNGFTPRITSDEDDYSLTLGARGGELFGAWDWDLSSTYGADRPEIGMDHSINLALYGETGDSPRSFDLARYKATQWTNNLDLRRDFDLAWLPAPLNFSWGLEQRRELYEVEAGDPWSYYNGGSKALPGQAPATAGQWSRDVLGAYLDLSIALDERWQLETAARYEHYSDFGSTTNGKLASRYRFSPEVSARASLSSGFRAPSLAQENYTS”, the “soluble on expression in E. coli” value was “not soluble”.

Consider “MPLSSPDRLAIAVDLGTTTLAASLLDMATGERLAVAGSLNPQREFGADVIARLDAACRSKEARHRMAELVRGAIGRLAGELLESVGRSPEHLVTIAVAGNPAMEHLLLDLPVDALAFPPYRPLFTAGKTVPAVGLGWDLPAEVFLFPLPGGFVGGDTVAFLHGVPGPRSPVPGPRLYLDMGTNGEIALAADGKLLATSAAAGPAFEGGNLSCGMAALPGAISGVTFDGERLLVSTVEGKPATGICGSGVLSAIALLLDQGAIDSTGRLLPPEEIPSSIGNRLTTMGDERAFVLHRDATRTVWLSQEDIRQVQLAKGAIRAGMEVLFDRAGIESGAVGSVVLTGSFGAVLDPHSLKSLGVFTENMVQTTSFVREGALRGVEHALLTSGGLAAVDHLAGTIRVIPLSGTPAFEKHFLQHINFPHTILEHHHHHH”, for which the “soluble on expression in E. coli” value is “soluble”.

Take “MGSDKIHHHHHHMAKEKKSRDTQKKIFVLDTSVIIYDHNAVKNFEEHDLAIPITVLEELDNFKKGNDIKNFEAREFTRFLDELAADSASLQDWIQLEGRDKGKLKVIMNTHGTKETDAEKIFDDRKNDHKILNAAISVQAENPDKKVILVSKDINLRLKAKSLNIPSEDYNTGKVKDIDLLYTGHTTIENVAPEKINELYEKGYCDIDAIPEQDVSKNHYYILKSVKSSALAYYNPVDKRLEHVGKTPAYGIKPRNAEQAFAIHAVLDPHIKLVSIQGVAGTGKTLIALAATLEQRKDFKQIFLARPIVPLSNKDIGYLPGDIKSKLNPYMEPLFDNLKFIQNQFNETDQDYQRITDMVNKEKLVITPLAYIRGRSLSNIVFIVDEAQNLTPHEVKTIISRAGENCKIIFTGDIFQIDTPYLDSESNGLSYLIDRLKNQDLYAHITLEKGERSELANLANELL”: the “soluble on expression in E. coli” value was “not soluble”.

For “MGSDKIHHHHHHMATELFTWHTLSDTLSDFKSGLSLAQNSGAESLLVLTCSQNNYPEEELNALFHACPLKLFGGIYPMLTLKGDLIKQGALIIGFKEAVDVTLFAQLNQVTNESCLEELITSTLKEKNNFCGQDDFLMFYDALISNIEGFIDCLFEHLDHGINIAGGGAGNLDFIQRHCIFTNSGVHSDAILLVALPRTLNTSVAHGWETFDEPFLVSEAQGQTVQSLNYQPAYEVYCQTIESATEYTFNNTDFFDIAKNFPLGIKDINNNIIVRDPILAKNNHLQCFGNIPINSMVYLLESNIDSLVASTEKAAIALLSKLNKTTITTTMVFDCISRALFMEDEFEKELNVIAEHCHLGALFGVLSLGEIANSQSGAIRLLNKSIVISSW”, the “soluble on expression in E. coli” value was “not soluble”.

Take “MSFEKLQKELHEAIEGVNRYNPENVADLAACVQAMVNENKYDKDIVLTILKLYQLNPEKYDEAVVRQVLLKTLMVLPSSDFALAKCLIDTNRLGSQELRRIFDLGAVLESCNFAVFWKLVKGAYKPTTNPNEPFKVPGEVPKMIKPMVGFEDAVKHYACRVISVTFQKIEKKMLSRLLGGASDKEVTALAQSFGWEAKENGDVFFVANHEGTIKTRNIDEKIQFPHVADLLTSIQPPLTL”: the “soluble on expression in E. coli” value is “not soluble”.

For the sequence “MGSDKIHHHHHHLAVLRYTVTNTGQLSVSGSWSASVKHPLIAVVFSSGRPDAPTLGKILKQLKKRYGIKNFNAVGHSAGSAAWANWAVTPDKQGMPQLRRLITIAGPFNGFPGMPGMNGGQHITLAKDGRPNVMSDRYKPLYDNRRYFPKTAAVLNLFGNLGKGTDGRVPVNSARSLRYVVAGRAKSYTEREITNSKAQHSQLHEHNPLVNRYLYEFLNNGKITN”, the “soluble on expression in E. coli” value was “not soluble”.

In the case of “SLSFASETKKELTNLEVKDCCINAELSALIRMNGALSFTNRHLVLDVQTENAAIARRIYTLLKKQYDVSVELLVRKKMRLKKNNVYIVRFSENAKAILEDLKILGENFVFERSISKELVKKRCCKRSYMRGAFLAGGSVNNPETSSYHLEIFSLYKEHNDSLCDLLNEFQLNSKTLERKKGYITYLKEAEKITEFLNVIGAHNSLLRFEDVRIVRDMRNSVNRLVNCETANLNKTIGASLRQVENIKYIDERIGLEALPEKLREIAQLRIDYQEVTLKELGEMVASGKISKSGINHRLRKLDEIAEQLRTGQTVTLK”, the “soluble on expression in E. coli” value is recorded as “soluble”.

On to “MSLADKATIYIIDDDEIFQFITRKSFERLERNDNLFFFLNGEDALSSIKEAISGNKPSPDLIFLDINMPIMDGWDFLAELIKLEGEMKKTPQIYMVSSSIDDKDLIKSKTYNMIKDYIVKPIKDTHIKELLNNLNEGHHHHHH”, for which the “soluble on expression in E. coli” value was “soluble”.

With “RYTNILVPVDSSDAAQAAFTEAVNIAQRHQANLTALYVVDDSAYHTPALDPVLSELLDAEAAHAKDAMRQRQQFVATTSAPNLKTEISYGIPKHTIEDYAKQHPEIDLIVLGATGTNSPHRVAVGSTTSYVVDHAPCNVIVIR”, the “soluble on expression in E. coli” value is reported as “soluble”.

On to “MGSDKIHHHHHHMFSVEQLQAFITTVETGSFSAAARRLNKVQSVVSQHVINLEVDCNILLFDRSGRYPALTEAGEKLLPHAQAVIDQHQRLKNSALSLTDNTPKEITIALDEGISFKLISGIISNLQNEFPNITLEFLSASSPDIIDMLKNEKALTGIVFSELTIPSYLDFECIGSIKFDLYVAKSHPLANQVCKNIDSLRLHRQLLIRSRNTQSSSFQLKLSPNVWYADNYFLLLELALQGNGWCLLPNHIANESVESGQLVKLPLEFEEMGWQANVDVVQHQRHSNLAVFKVLRLLLRNLL”, for which the “soluble on expression in E. coli” value is recorded as “not soluble”.

On to “MSSQKQLEGMIFDVQSFSVHDGPGCRTTVFLNGCPLSCKWCANPESWTVRPHMMFSELSCQYENGCTVCHGKCKNGALSFNLDNKPVIDWNICKDCESFECVNSCYYNAFKLCAKPYTVDELVQVIKRDSNNWRSNGGVTFSGGEPLLQHEFLHEVLLKCHEVNIHTAIETSACVSNEVFNKIFNDIDFAFIDIKHMDREKHKEQTGVYNDLILENISNLANSDWNGRLVLRVPVISGFNDSDENISDIISFMHKNNLVEINLLPFHRLGESKWTQLGKEYEYSDKGDVDEGHLEELQDIFLDNGIACYVGHETAF”, for which the “soluble on expression in E. coli” value is “not soluble”.

In the case of “GSHMAKEEIIWESLSVDVGSQGNPGIVEYKGVDTKTGEVLFEREPIPIGTNNMGEFLAIVHGLRYLKERNSRKPIYSNSQTAIKWVKDKKAKSTLVRNEETALIWKLVDEAEEWLNTHTYETPILKWQTDKWGEIKADYGRK”, the “soluble on expression in E. coli” value was “soluble”.
